From patent US20130336980A1 (Janssen / Centocor, published 2013)
Positions count from the first letter of the chain named. Like-named read-outs stand apart in the source and are kept apart here.

Columns and labels:
18AKF20-->TEG = assay: SPR, ProteOn XPR36, 25 C: mAb captured on anti-Fc surface, ST2L-D1D2 (HH-ST2L) wild type or variant injected, 1:1 model
human ST2L on cells = biological target: T1, human ST2L on cells (human, UniProt Q01638 19-556); assay: cell-based or functional assay
T1 sequence: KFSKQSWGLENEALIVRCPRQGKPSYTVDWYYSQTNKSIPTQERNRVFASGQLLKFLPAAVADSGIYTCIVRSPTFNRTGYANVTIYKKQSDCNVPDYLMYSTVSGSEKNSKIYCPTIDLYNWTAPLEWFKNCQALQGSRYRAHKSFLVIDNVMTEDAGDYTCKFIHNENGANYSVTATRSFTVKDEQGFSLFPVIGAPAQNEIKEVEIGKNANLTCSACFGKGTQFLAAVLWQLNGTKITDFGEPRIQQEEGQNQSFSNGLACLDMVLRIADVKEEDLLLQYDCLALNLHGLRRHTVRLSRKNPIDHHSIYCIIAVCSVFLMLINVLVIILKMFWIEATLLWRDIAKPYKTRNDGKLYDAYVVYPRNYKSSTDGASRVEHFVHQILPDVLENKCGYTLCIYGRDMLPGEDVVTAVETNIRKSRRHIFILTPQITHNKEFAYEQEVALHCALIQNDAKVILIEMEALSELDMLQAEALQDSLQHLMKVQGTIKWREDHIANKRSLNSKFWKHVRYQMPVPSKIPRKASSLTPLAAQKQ

[1] = biological target: T2, human ST2L extracellular domain with C-terminal His6 tag (human, UniProt Q01638 19-328); assay: RLB ELISA, inhibition of biotin-IL-33 binding to coated huST2L-ECD
T2 construct: also called huST2L-ECD; ST2L-ECD
T2 sequence: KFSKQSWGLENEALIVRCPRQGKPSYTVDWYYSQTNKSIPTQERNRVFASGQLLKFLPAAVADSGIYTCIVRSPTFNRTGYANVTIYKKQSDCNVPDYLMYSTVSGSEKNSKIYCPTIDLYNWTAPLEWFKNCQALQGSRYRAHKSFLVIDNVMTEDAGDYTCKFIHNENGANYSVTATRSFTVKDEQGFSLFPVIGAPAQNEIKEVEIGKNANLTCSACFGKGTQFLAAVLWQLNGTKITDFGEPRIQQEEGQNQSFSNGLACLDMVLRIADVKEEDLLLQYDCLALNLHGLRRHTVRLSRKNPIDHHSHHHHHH

[2] = biological target: T3, cynomolgus ST2L extracellular domain with C-terminal His6 tag (Macaca fascicularis (cyno), UniProt Q01638 19-321 (human entry)); assay: SPR, captured mAb, ST2L-ECD analyte
T3 construct: also called cynoST2L-ECD; cyno ST2L
T3 chain: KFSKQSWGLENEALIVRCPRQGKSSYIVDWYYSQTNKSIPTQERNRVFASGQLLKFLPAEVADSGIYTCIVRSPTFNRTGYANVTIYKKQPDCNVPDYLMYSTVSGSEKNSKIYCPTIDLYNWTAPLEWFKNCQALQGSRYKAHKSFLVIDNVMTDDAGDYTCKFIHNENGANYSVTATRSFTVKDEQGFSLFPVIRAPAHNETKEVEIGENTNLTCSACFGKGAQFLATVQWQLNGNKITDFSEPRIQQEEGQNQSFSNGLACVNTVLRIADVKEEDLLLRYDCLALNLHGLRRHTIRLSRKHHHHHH
Protocol: (§1) The interactions of anti-ST2L antibodies with His₆-tagged human ST2L-ECD and His₆-tagged cyno ST2L-ECD were studied by ProteOn using a ProteOn XPR36 at 25° C. A biosensor surface was prepared by coupling goat anti-human IgG Fcγ fragment specific antibody (Ab) to the surface of a GLC sensor chip using the manufacturer instructions for amine-coupling chemistry. The coupling buffer was 10 mM sodium acetate, pH 4.5. The goat anti-human IgG Fcγ (about 4500 response units) was immobilized in the horizontal orientation. The anti-ST2L antibodies were provided purified, or in crude supernatants. In either case these antibodies were diluted in PRB (PBS pH 7.4, supplemented with, 3 mM EDTA, and 0.005% Tween 20) to a concentration of about 0.5 μg/mL. The antibodies were captured (60-130 RU) in the vertical orientation onto the anti-human Fcγ antibody-modified GLC chip. Capture of anti-ST2L mAbs was followed by injection of huST2L ECD in solution (0.024 to 15 nM in 5-fold dilutions) or cynoST2L ECD in solution (0.020-5 nM in 4-fold dilutions) in the horizontal orientation. The association was monitored for 4 minutes in all experiments (200 μL injected at 50 μL/min). The dissociation was monitored for 30 minutes. Regeneration of the sensor surface was obtained with three 15 sec pulses of 10 mM glycine pH 1.5. The data were fit using the ProteOn software and using a 1:1 binding model with mass transfer.

[3] = biological target: T2, human ST2L extracellular domain with …; assay: SPR, captured mAb, ST2L-ECD analyte
Protocol: as §1

[4] = biological target: T2, human ST2L extracellular domain with …; assay: MSD electrochemiluminescence competition assay on plate-coated ST2L-ECD; unlabeled antibody titrated against 30 nM sulfo-tag labeled C2244 Fab
Protocol: Competition binding assays were performed to evaluate different binding epitope groups for anti-ST2L mAbs. 5 μl (10 μg/ml) of ST2L-ECD protein was coated on MSD HighBind plate (Meso Scale Discovery, Gaithersburg, Md.) per well for 2 hr at room temperature. One-hundred and fifty microliters of 5% MSD Blocker A buffer (Meso Scale Discovery, Gaithersburg, Md.) was added to each well and incubated for 2 hr at room temperature. Plates were washed three times with 0.1 M HEPES buffer, pH 7.4, followed by the addition of the mixture of the MSD fluorescence dye (sulfo tag, NHS ester) labeled individual anti-ST2L antibody with different competitors. Labeled antibody, 10 or 30 nM, was incubated with increasing concentrations of competitor antibodies, from 1 nM to 2 or 5 μM, and then added to the designated wells in a volume of 25 μL mixture. After 2-hour incubation with gentle shaking at room temperature, plates were washed 3 times with 0.1M HEPES buffer (pH 7.4). MSD Read Buffer T was diluted with distilled water (4-fold) and dispensed at a volume of 150 μL/well and analyzed with a SECTOR Imager 6000.

[5] = biological target: T3, cynomolgus ST2L extracellular domain …; assay: SPR, captured mAb, ST2L-ECD analyte
[6] = biological target: T2, human ST2L extracellular domain with …; assay: SPR, captured mAb, ST2L-ECD analyte; remark: listed apart in the source

B1: STLM208 (antibody, V domains shown)
VH: EVQLLESGGGLVQPGGSLRLSCAASGFTFSIYDMIWVRQAPGKGLEWVSSIRGEGGGTYYADSVKGRFTISRDNSKNTLYLQMNSLRAEDTAVYYCARDPWSTEGSFFVLDYWGQGTLVTVSS
VL: EIVLTQSPATLSLSPGERATLSCRASQSVDDDLAWYQQKPGQAPRLLIYDASNRATGIPARFSGSGSGTDFTLTISSLEPEDFAVYYCQQYITAPLTFGQGTKVEIK
Kd (18AKF20-->TEG): 0.0193 nM | koff (18AKF20-->TEG): 0.000229 s⁻¹ | kon (18AKF20-->TEG): 1.3e+07 M⁻¹ s⁻¹

B2: STLM206 (antibody, V domains shown)
VH: B1 VH with S50T, G57S
VL: B1 VL
notes: IgG; VH3-23 / Vk-L6 frameworks
RGA IC50 (human ST2L on cells): 0.67 µg/mL | IC50 [1]: 0.4 µg/mL | Kd [2]: 0.006 nM | koff [2]: 0.000583 s⁻¹ | kon [2]: 9.4e+07 M⁻¹ s⁻¹ | Kd [3]: 0.025 nM | koff [3]: 0.00016 s⁻¹ | kon [3]: 6.39e+06 M⁻¹ s⁻¹

B3: STLM15 (antibody, human IgG2, V domains shown)
VH: EVQLQESGPGLVKPSQSLSLTCTVTGFSITSDYAWNWIRQFPGSKLEWMGFISYSGDTSFNPSLKSRISVTRDTSKNQFFLQLNSVTTEDTATYYCASYDGYSFDYWGQGTTLTVSS
VL: DIVLTQSPASLAISLGQRATISCRASKSVSTSGSSYMFWYQQKPGQPPKLLIYLASNLESGVPARFSGSGSGTDFTLNIHPVEEEDAAAYYCQHSREIPYTFGGGTKLEIK
notes: Mouse hybridoma C2244 V regions cloned into human IgG2 background = STLM15; also called C2244; C2244/STLM15
IC50 (read off the curve) [4]: ~100 nM

B4: ST2M50 (antibody, V domains shown)
VH: EVQLVQSGAEVKKPGESLKISCKGSGYSFTSYWIGWVRQMPGKGLEWMGIIYPGDSYTRYSPSFQGQVTISADKSISTAYLQWSSLKASDTAMYYCARLSGRFDYWGQGTLVTVSS
VL: B1 VL with D30S, D31N, D32A, D50F, Y91F, I92F, T93N, A94W, L96I
Kd [5]: 0.124 nM | koff [5]: 0.00249 s⁻¹ | kon [5]: 2.01e+07 M⁻¹ s⁻¹ | Kd [6]: 0.045 nM | koff [6]: 5.1e-05 s⁻¹ | kon [6]: 1.15e+06 M⁻¹ s⁻¹
